These results are taken from patent US6867177B2, “CD39/ECTO-adpase as a treatment for thrombotic and ischemic disorders” (The Trustees of Columbia University in the City of New York, priority 1999, dated 2005).

The subject of data set [1] is stroke (focal cerebral ischemia and reperfusion). The following applies: for postischemic cerebral perfusion (cerebral blood flow): laser Doppler, ischemic vs nonischemic hemisphere; for cerebral infarct volume: preoperatively administered, CD39 4 and 8 mg/kg, aspirin 5 mg/kg, 24 hours.
Data set [2] can be described thus: Measurement of bleeding time (tail vein incision). The class given is in vivo. The conditions noted are these: mice not subjected to other manipulation; intravenous. As for the experimental part:
Measurement of Bleeding Time: Bleeding times were measured in mice which were not subjected to experimental manipulation other than by receiving either vehicle (saline) or CD39 prepared in physiological saline and administered intravenously 5 minutes prior to the experiment. Following anesthesia, a standardized incision was made on the central dorsal tail vein, and the tail was then immersed in physiological saline at 37.5° C.

The test system of data set [3] is murine platelets. The data set is described as follows: Murine platelet aggregation (aggregometry of platelet-rich plasma from treated mice). The class given is cell-based. The following applies: for platelet aggregation response to ADP: ADP 2.5 or 10 μM, CD39 4 mg/kg, aspirin 5 mg/kg; for platelet aggregation response to ADP / platelet aggregation response to collagen / platelet aggregation response to sodium arachidonate: agent given to mice 45 minutes prior to harvest of blood; for platelet aggregation response to collagen: collagen 2.5 or 10 μg/mL; for platelet aggregation response to sodium arachidonate: sodium arachidonate 0.1 mM. The procedure:
Preparation of Murine Platelets: Mice (untreated, treated with 4 mg/kg CD39, or treated with […]) were anesthetized and heparinized (10 U/g), prior to blood collection via cardiac puncture performed with 22 gauge, 1 cc syringe. Immediately following collection, 80 μl 3.8% trisodium citrate was added to each mL of blood. Blood from 6-8 mice was pooled in a 15 mL tube centrifuge tube (Flacon, polypropylene). Platelet-rich plasma (PRP) was prepared with an initial whole blood centrifugation (900 g, 3 min, 20° C., no brake), and a second centrifugation of PRP (100 g, 2 min) to eliminate residual erythrocytes and leukocytes. The stock suspension of PRP was maintained at room temperature. PRP platelet counts were 400-700×10^3 platelets per μl.
Platelet aggregation studies: PRP (200 μl) was pre-incubated (3 min, 37° C.) with 100 μl Tris-buffered saline (TSG) buffer (15 mM Tris, 134 mM NaCl, 5 mM glucose, pH 7.4) in an aggregometer cuvette (Lumiaggregometer; Chrono-Log, Havertown, Pa.). After the 3 min, 37° C. preincubation ≈5.0 C 10^5 platelets, platelet agonist (ADP, collagen, sodium arachidonate) were added at the concentration indicated. Total volumes were adjusted to 300 μl with TSG buffer, and the aggregation response recorded for 2-4 min. Agonists were prepared as 100× solution: ADP was in TSG buffer, collagen in acidified isotonic glucose ([…], Munchen, Germany), and sodium arachidonate in 0.85% saline. All aggregation studies were completed within two hours of blood collection.
Quantitation of Platelet Aggregation: Area under the curve was estimated by multiplying the height of the curve with its width at half height. The former was measured form pre-simulation baseline to the middle of the highest point of the curve. However, when curves were less than ⅓ of maximal height, the lowest point of the shape change portion of the curve was considered baseline. […] These criteria underestimate large aggregation responses, and overestimate small ones. Thus we knowingly underestimated the effects of compounds with great inhibitory capacity. This approach was preferred over one that could have overemphasized inhibitory potential.
Murine platelet aggregation: C57/6J BL mice (6-8 weeks) were obtained from Jackson Laboratories, Bar Harbor, Me.). Untreated mice, and mice treated with 4 mg/kg CD39, with 5 mg/kg aspirin or phosphate buffered saline, were anesthetized and heparinized (10 U/g), prior to blood collection via cardiac puncture; 80 μL 3.8% trisodium citrate was added to each mL of blood. Samples from 6-8 mice were pooled and platelet-rich plasma (PRP) prepared by centrifugation (900 g, 3 min, 20° C., followed by 100 g, 2 min to eliminate residual erythrocytes and leukocytes). PRP contained 400-700×10^3 platelets per μL. PRP (200 μL) was preincubated (3 min, 37° C.) with 100 μL Tris-buffered saline (TSG) buffer (15 mM Tris, 134 mM NaCl, 5 mM glucose, pH 7.4)^11,23,24 in an aggregometer cuvette (Lumiaggregometer; Chrono-Log, Havertown, Pa.). Platelet agonists (ADP, collagen (Hormon Chemie, Munchen, Germany), or sodium arachidonate (Nu-Check Prep, Elysian, Minn.)) were added at the final concentrations indicated. Aggregation responses were recorded for 2-4 min, and expressed as area under the curve (height times width at ½ height). All experiments were completed within two hours of blood collection.

Data set [4] has as its system platelets. The conditions noted are these: cited from earlier work.
Data set [5] concerns lung ischemia and reperfusion. The data set is described as follows: Mouse model of lung ischemia and reperfusion. The class given is in vivo, mice. The conditions noted are these: CD39 8 mg/kg; 1 hour ischemia, 2 hour reperfusion, observation 1 hour; four experiments. As for the experimental part:
In these studies, murine ischemic reperfusion model was used. In the mouse model of lung ischemia, mice were initially anesthetized intraperitoneal with 0.1 mg/mouse weight (g) of ketamine and 0.01 mg/mouse weight (g) of xylazine, following by intraperitoneal continuous infusion of one third of the initial dose per hour using a syringe pump (model 100 series, KD Scientific Inc. Mass.). After ensuring appropriate depth of anesthesia, mice were intubated via tracheostomy and placed on a Harvard ventilator (tidal volume=0.75 mL, respiratory rate=120/min) with room air, followed by bilateral thoracotomy. The left hilum was cross-clamped for a period of 1 hour after which the cross-clamp was released. Reperfusion proceeded for 2 hours.
For all experiments, the surgical operator was blinded by a colleague in the laboratory to the specific substance being injected (vehicle or CD39, 8 mg/kg). Experimental procedures were as follows. […]

For data set [6] the following is noted: cited from earlier work.
For data set [7] the following is noted: peptide affinity purified from CHO conditioned medium; cited from earlier work.
In data set [8] the test system is stroke in CD39-/- mice.
[9] abbreviates: treatment either prior to, or up to 3 hours following stroke.
[10] abbreviates: control, CD39-/- and reconstituted CD39-/- mice.

For `CC(=O)Oc1ccccc1C(=O)O` [aspirin, reference compound], in data set [1], the “postischemic cerebral perfusion (cerebral blood flow)” value was “did not improve” and the cerebral infarct volume result was “tendency to decrease cerebral infarct volume, the effect was not statistically significant”. Also, the bleeding time result in data set [2] is “markedly increased”. In addition, in data set [3], the “platelet aggregation response to ADP” value was “strongly aggregated”, the “platelet aggregation response to collagen” value is “strongly aggregated” and the “platelet aggregation response to sodium arachidonate” value is listed as “abrogated”. Moreover, the “platelet reactivity to collagen at any collagen dose” value in data set [3] (any collagen dose) is “little effect”.

B1: CD39: recombinant soluble CD39 (SEQ ID NO:2): four apyrase domains, lacking the two transmembrane regions, IL-2 leader, expressed in CHO cells (protein, listed as Homo sapiens)
chain: TQNKALPENVKYGIVLDAGSSHTSLYIYKWPAEKENDTGVVHQVEECRVKGPGISKFVQKVNEIGIYLTDCMERAREVIPRSQHQETPVYLGATAGMRLLRMESEELADRVLDVVERSLSNYPFDFQGARIITGQEEGAYGWITINYLLGKFSQKTRWFSIVPYETNNQETFGALDLGGASTQVTFVPQNQTIESPDNALQFRLYGKDYNVYTHSFLCYGKDQALWQKLAKDIQVASNEILRDPCFHPGYKKVVNVSDLYKTPCTKRFEMTLPFQQFEIQGIGNYQQCHQSILELFNTSYCPYSQCAFNGIFLPPLQGDFGAFSAFYFVMKFLNLTSEKVSQEKVTEMMKKFCAQPWEEIKTSYAGVKEKYLSEYCFSGTYILSLLLQGYHFTADSWEHIHFIGKIQGSDAGWTLGYMLNLTNMIPAEQPLSTPLSHST
For B1, the “ADP-induced platelet aggregation in vitro” value in data set [4] is “blocked”. The “mouse survival following functional removal of the contralateral (nonischemic) lung” value in data set [5] was 100%. In data set [1] (administered three hours after onset of stroke (8 mg/kg)), the cerebroprotection result was “significant cerebroprotection”. Also, in data set [1] (intravenously injected, 111In-labeled platelets, 24 hours of reperfusion), the “platelet accumulation in the ipsilateral cerebral hemisphere” value is recorded as “inhibited”. Also, in data set [1] (intravenously injected, fibrin immunoblot), the “fibrin accumulation in the ipsilateral cerebral hemisphere” value was “inhibited”. In data set [1], the “postischemic cerebral perfusion (cerebral blood flow)” value is on record as “improved” and the cerebral infarct volume entry is reported as “dose-dependent diminution”. Also, in data set [1] (mouse, in vivo), the intracerebral hemorrhage entry is “without an increase”. In addition, in data set [1] (setting [9]), the mortality result was “reduced” and the neurological deficit result was “reduced”. For the same molecule, the bleeding time result in data set [2] is “dose-dependent increase”. In addition, the “elimination half-time in mice” value in data set [6] is reported as 2 days. Moreover, the apyrase activity entry in data set [7] is “potent apyrase activity”. For the same molecule, in data set [3], the “platelet aggregation response to ADP” value is “completely abrogated”; the “platelet aggregation response to collagen” value was “attenuated”; the “platelet aggregation response to sodium arachidonate” value was “did not inhibit the initial activation phase of platelet aggregation to arachidonate, but rapidly disaggregated platelets during the initial recruitment phase”. In data set [3] (higher doses of collagen), the “platelet reactivity to higher doses of collagen” value was “do respond”. The “platelet reactivity to low-dose collagen” value in data set [3] (low-dose collagen) is given as “inhibited”. In addition, in data set [8] (CD39-/- mice reconstituted with CD39, 24 hours), the cerebral infarct volume entry is given as “markedly diminished”. Besides, in data set [8] (setting [10]), the intracerebral hemorrhage entry is “did not differ between groups”, the neurological deficit scores entry is “did not differ between groups” and the overall mortality entry is reported as “did not differ between groups”.
